Assay results reported in patent US20150197559A1 (University of California, published 2015).

Assays:
BoNT/B1 [1] = target: T1, BoNT/B1 (Clostridium botulinum, UniProt P10844 2-1291); assay: flow cytometry, yeast-displayed affinity matured scFv
T1 sequence: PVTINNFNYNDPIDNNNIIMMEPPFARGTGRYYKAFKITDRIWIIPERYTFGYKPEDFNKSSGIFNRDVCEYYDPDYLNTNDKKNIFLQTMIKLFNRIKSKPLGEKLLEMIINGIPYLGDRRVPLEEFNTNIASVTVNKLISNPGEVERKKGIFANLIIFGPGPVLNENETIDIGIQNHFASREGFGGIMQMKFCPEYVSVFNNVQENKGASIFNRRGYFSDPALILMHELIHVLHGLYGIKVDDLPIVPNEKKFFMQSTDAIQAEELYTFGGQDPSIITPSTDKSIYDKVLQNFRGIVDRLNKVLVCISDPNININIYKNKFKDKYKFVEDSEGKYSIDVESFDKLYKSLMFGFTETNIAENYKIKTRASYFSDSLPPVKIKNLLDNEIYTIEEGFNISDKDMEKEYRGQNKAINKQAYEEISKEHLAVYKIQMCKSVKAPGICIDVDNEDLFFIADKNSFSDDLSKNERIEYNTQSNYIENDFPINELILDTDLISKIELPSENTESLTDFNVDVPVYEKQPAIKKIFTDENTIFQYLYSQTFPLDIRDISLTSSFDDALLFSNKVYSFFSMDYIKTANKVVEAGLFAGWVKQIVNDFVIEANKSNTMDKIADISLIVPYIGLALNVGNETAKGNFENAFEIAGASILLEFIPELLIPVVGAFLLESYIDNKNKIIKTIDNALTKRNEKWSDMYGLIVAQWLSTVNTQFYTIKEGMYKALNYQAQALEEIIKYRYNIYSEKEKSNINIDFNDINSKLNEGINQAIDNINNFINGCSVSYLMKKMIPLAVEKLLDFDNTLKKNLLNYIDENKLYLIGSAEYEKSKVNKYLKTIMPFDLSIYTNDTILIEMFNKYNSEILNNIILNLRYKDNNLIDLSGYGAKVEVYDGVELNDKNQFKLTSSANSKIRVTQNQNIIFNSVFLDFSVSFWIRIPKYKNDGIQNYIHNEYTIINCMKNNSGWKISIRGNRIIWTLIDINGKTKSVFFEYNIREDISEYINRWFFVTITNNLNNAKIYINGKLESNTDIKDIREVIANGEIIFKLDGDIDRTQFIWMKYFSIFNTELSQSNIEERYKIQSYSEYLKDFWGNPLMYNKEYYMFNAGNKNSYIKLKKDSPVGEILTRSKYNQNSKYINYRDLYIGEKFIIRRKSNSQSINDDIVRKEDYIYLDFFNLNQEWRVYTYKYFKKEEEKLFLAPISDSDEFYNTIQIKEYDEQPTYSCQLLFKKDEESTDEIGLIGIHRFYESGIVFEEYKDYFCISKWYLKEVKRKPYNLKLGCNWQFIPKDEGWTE

BoNT/B1 [2] = target: T1, BoNT/B1; assay: yeast-displayed scFv, flow cytometry; reference parental scFv 1B18
BoNT/B1 [3] = target: T1, BoNT/B1; assay: KinExA flow fluorimetry, IgG in solution

B1: 2B18.1 scFv (scFv)
scFv: QVQLVQSGGGLVQPGGSRRLSCAASGFYFNAYWMTWVRQAPGKGLEWVANINLDGTEIYYLDSVKGRFTVSRDNVKNSVFLQMSSLRVEDTAVYFCARLEWGGRNGWVSPWGQGTLVTVSSGGGGSGGGGSGGGGSDIVMTQSPSSLSASVGDRVSISCRASQSISSYLNWYQQKPGKAPKLLIYKTSSLESGVPSRFSGRGSGTDFTLTISSLQPEDFATYYCQQSYSTPLTFGGGTKVEIKR
- Kd (BoNT/B1 [1]): 0.638 nM
- Fold increase in affinity scFv (KD wild type/KD matured) (BoNT/B1 [2]): 11.4 fold

B2: 2B18.1 IgG (antibody, V domains shown)
VH: QVQLVQSGGGLVQPGGSRRLSCAASGFYFNAYWMTWVRQAPGKGLEWVANINLDGTEIYYLDSVKGRFTVSRDNVKNSVFLQMSSLRVEDTAVYFCARLEWGGRNGWVSPWGQGTLVTVSS
VL: DIVMTQSPSSLSASVGDRVSISCRASQSISSYLNWYQQKPGKAPKLLIYKTSSLESGVPSRFSGRGSGTDFTLTISSLQPEDFATYYCQQSYSTPLTFGGGTKVEIKR
- Kd (BoNT/B1 [3]): 0.0724 nM
